Measurements as given in patent US20260077011A1, “INTEGRIN INHIBITORS AS THERAPY FOR OBESITY DISORDERS” (priority 2022, published 2026).
Where no end group is shown, it is not given here.

Key:
RAW264.7 cells = assay type: cell-based
Description: (§1) Cells were also analyzed for the FITC-labeled peptide, which was added to the suspension of RAW264.7 cells in doses of 100 nM, 1 μM, 3 μM, 10 μM, 30 μM, 100 μM, and 300 μM, for one hour. For the time curve binding assay, 3 μM of the FITC-peptide were incubated with cells for 1, 5, 15, 60, 180, and 360 minutes before and analyzed on flow cytometry. For the propidium iodide (PI) assay, cells were incubated with different doses of the peptide for eight and 24 hours, with 10% DMSO serving as a positive control; the cells were then suspended, stained with PI, and analyzed with flow cytometry.
To investigate the effects of the SVEP1-based peptide on the metabolic and proliferative capacity of macrophage cells, RAW264.7 cells were subjected to varying concentrations of the peptide (1, 10, 30, 120 μM). The cells' metabolic activity was assessed using XTT after 3, 8, and 24 hours of peptide treatment. […] To further evaluate cell viability, propidium iodide (PI) staining was conducted after 8 and 24 hours of peptide treatment. […] These findings provide evidence of the peptide's safety profile and its potential suitability for use in macrophage cells.

integrin α9β1 [1] = biological target: T1, integrin α9β1 (Mus musculus, UniProt B8JK39+P09055); assay: FITC-peptide dose-dependent uptake and time curve binding, flow cytometry; conditions: RAW264.7 cells
T1 construct: RAW264.7 cells, a murine macrophage-like cell line, was chosen due to their similarity to macrophages, adhesive and migratory capabilities, and their expression of integrin α9β1; host or cells: RAW264.7
Description: (§2) RAW264.7 cells were incubated in PBS with 2% serum, 0.1% NaN3, and 1 mM EDTA for 20 minutes, collected, and centrifuged at 1800 rpm for 5 min. Next, the cells were suspended in a staining buffer; PBS with 2% serum and 0.1% NaN3 for 15 min on ice. The cells were stained for ITGA9-PE (R&D technologies).
as §1
All labeled cells were analyzed by Cytoflex5l and Kaluza software (Beckman Coulter instrument).
In a previous study, a 9 amino-acid long sequence, “EDDMMEVPY”, was identified as the binding site of SVEP1 to integrin α9β1. To examine the effect of the peptide in vitro, RAW264.7 cells, a murine macrophage-like cell line, was chosen due to their similarity to macrophages, adhesive and migratory capabilities, and their expression of integrin α9β1, as shown in the confocal staining of ITGA9 and F4/80, with a seeming membranal expression of both (FIG. 5G). […] To characterize the binding properties of the peptide, a fluorescein isothiocyanate (FITC) labeled peptide was generated. The inventors first performed a dose-dependent uptake test, where the RAW264.7 cells were incubated with increasing peptide concentrations for half an hour and then measured in a flow cytometry assay. […] Next, the cells were pretreated with the peptide for different time durations and were also measured by flow cytometry analysis. The peptide bonded relatively quickly, with 50% of max mean fluorescence intensity presented after 15 minutes and stabilization after three hours (FIG. 5C). […]

integrin α9β1 [2] = biological target: T1, integrin α9β1; assay: Fluorescent live microscopy of FITC-peptide binding with/without unlabeled peptide; conditions: RAW264.7 cells, FITC-peptide 30 μM
Description: FIGS. 5A-5M include fluorescent micrographs and graphs showing characterization of the peptide's binding properties. (5A) Representative immunofluorescent confocal images of Raw264.7 cells stained for F4/80 and ITGA9, the dotted line square represents the magnified pictures, scale bar 116 μm. (5B) Flow cytometry quantification of LPS-activated RAW264.7 cells, ITGA9 MFI levels in LPS-activated RAW264.7 cells (4 hours), significance was calculated by unpaired t-test analysis. (5C) Calculated dose-response curve of Peptide-FITC positive RAW264.7 cells, measured in flow cytometry and time curve of the averaged mean fluorescent intensity (MFI) of RAW264.7 cells incubated with the labeled peptide, the MFI was calculated by flow cytometry. (5D) Representative images of RAW264.7 cells incubated with FITC-peptide (30 μM) for 15 and 60 minutes with and without an unlabeled peptide, scale bar=100 μm, and quantification of fluorescence intensity of RAW264.7 cells incubated with FITC-peptide (30 μM) for 15 and 60 minutes, w/o the unlabeled peptide, significance was calculated by using an ordinary one-way ANOVA. […] (5F) ITGA9 fluorescence intensity histogram in Scrambled and ITGA9 KD (Red) Raw264.7 cells incubated with FITC-peptide (30 μM) for 60 minutes, measured by flow cytometry. […]

ITGA9 = biological target: T2, ITGA9 (Mus musculus, UniProt B8JK39+P09055); assay: FITC-peptide binding specificity in ITGA9 knockdown (siITGA9) cells; conditions: RAW264.7 cells, FITC-peptide 30 μM, 60 minutes
T2 construct: RAW264.7 cells, a murine macrophage-like cell line, was chosen due to their similarity to macrophages, adhesive and migratory capabilities, and their expression of integrin α9β1; host or cells: RAW264.7
Description: For siRNA assays, RAW264.7 cells were transfected by using Avalanche®-Everyday Transfection Reagent (Ezbio systems) with siSCR (Santa Cruz) and siITGA9 (Santa Cruz) in DMEM. The transfection solution was added to the cells for 48 hours, and the cells were examined after an additional 48 hours (96 hours in total).
as §2
In a previous study, a 9 amino-acid long sequence, “EDDMMEVPY”, was identified as the binding site of SVEP1 to integrin α9β1. […] The inventors first performed a dose-dependent uptake test, where the RAW264.7 cells were incubated with increasing peptide concentrations for half an hour and then measured in a flow cytometry assay. […] Next, the cells were pretreated with the peptide for different time durations and were also measured by flow cytometry analysis. The peptide bonded relatively quickly, with 50% of max mean fluorescence intensity presented after 15 minutes and stabilization after three hours (FIG. 5C). […]

T1 sequence (B8JK39 29-1036): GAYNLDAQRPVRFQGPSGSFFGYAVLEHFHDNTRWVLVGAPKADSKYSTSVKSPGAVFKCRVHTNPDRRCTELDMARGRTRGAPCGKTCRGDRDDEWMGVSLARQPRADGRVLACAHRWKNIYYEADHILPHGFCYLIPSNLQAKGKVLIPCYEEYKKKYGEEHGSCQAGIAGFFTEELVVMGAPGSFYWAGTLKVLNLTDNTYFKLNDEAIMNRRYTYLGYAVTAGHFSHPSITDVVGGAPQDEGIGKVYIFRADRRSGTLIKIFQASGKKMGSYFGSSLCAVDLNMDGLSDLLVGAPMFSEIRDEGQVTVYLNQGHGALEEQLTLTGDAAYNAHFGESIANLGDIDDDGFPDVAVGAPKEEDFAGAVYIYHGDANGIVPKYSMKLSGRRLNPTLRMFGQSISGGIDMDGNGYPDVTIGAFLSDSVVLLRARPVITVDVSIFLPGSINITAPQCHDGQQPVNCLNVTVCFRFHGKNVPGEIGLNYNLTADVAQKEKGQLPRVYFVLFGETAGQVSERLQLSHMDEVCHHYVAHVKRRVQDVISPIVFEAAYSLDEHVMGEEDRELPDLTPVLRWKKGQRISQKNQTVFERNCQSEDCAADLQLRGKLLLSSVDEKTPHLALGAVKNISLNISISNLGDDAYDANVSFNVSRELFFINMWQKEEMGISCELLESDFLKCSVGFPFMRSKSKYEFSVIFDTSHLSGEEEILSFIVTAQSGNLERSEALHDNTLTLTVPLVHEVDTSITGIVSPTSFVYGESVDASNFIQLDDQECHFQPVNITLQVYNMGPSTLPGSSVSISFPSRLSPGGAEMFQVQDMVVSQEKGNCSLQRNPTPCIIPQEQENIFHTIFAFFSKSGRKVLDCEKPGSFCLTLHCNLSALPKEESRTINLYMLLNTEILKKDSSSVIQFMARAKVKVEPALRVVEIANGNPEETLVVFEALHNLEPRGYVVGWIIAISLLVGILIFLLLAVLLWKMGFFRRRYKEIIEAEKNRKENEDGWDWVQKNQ
T1 sequence (P09055 21-798): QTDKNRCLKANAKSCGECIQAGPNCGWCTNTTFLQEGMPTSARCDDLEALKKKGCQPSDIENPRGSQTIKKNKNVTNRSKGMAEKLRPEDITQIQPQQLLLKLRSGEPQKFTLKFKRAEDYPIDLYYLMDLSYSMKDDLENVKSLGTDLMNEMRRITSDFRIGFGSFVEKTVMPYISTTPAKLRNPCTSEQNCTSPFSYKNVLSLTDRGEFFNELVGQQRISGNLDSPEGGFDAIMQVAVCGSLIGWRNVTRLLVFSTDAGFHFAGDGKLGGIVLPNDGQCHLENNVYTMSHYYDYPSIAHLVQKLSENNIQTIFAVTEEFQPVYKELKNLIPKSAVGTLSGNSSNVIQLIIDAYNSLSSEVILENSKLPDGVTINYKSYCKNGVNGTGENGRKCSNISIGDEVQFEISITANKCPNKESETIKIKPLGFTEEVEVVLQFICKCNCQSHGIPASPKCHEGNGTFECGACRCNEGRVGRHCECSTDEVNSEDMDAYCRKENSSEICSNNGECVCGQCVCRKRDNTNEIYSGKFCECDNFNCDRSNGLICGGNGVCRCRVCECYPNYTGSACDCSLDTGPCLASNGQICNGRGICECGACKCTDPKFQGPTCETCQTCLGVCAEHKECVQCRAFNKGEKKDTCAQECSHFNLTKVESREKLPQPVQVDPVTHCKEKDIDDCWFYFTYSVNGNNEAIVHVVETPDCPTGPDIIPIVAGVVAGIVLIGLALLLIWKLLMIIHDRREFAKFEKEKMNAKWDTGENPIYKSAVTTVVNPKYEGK
T2 sequence (B8JK39 29-1036): as the sequence (B8JK39 29-1036) above
T2 sequence (P09055 21-798): as the sequence (P09055 21-798) above

Substance | fraction of PI-positive cells compared to the untreated group (RAW264.7 cells) | time to 50% of max mean fluorescence intensity (integrin α9β1 [1]; 3 μM FITC-peptide) | time to stabilization of mean fluorescence intensity (integrin α9β1 [1]; 3 μM FITC-peptide) | percentage of Peptide-FITC positive cells (integrin α9β1 [1]; increasing peptide concentrations, half an hour) | increase of fluorescence intensity after 60 minutes compared to 15 minutes (integrin α9β1 [2]) | change of fluorescence intensity when co-incubated with the unlabeled peptide (integrin α9β1 [2]; competitive binding) | FITC-peptide binding (fluorescence intensity) in siITGA9 versus scrambled cells (ITGA9) | percentage of ITGA9+FITC-peptide+ cells in KD cells (ITGA9; flow cytometry)
EDDMMEVPY [peptide, EDDMMEVPY] | remained unchanged | – | – | – | – | – | – | –
FITC-peptide: fluorescein isothiocyanate (FITC) labeled peptide of 9 amino acids (EDDMMEVPY) (also: FITC labeled, site not given here) | – | 15 min | three | higher percentage of positive cells in a dose-related manner | 35% | decreased by a similar percentage | lower intensity levels | significantly lower
